Values quoted from earlier work as cited in paper PMC7288020.

Molecular target: Aβ1-40 Aβ 1-40 (Homo sapiens) (UniProt P05067)
Sequence of UniProt P05067 (P05067 1-40): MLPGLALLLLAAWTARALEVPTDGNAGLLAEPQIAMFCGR

- Kd: 6 nM
Substance: ApoA1 (from UniProt P02647)
